Tests used:
[1] = target: amylin receptor 1 ECD ECD (Homo sapiens) (UniProt P30988); conditions: cited from earlier work
[2] = target: FITC-labeled salmon calcitonin (sCT) fragment(22–32); assay: fluorescence anisotropy, FITC-peptide probe binding; conditions: anisotropy at the highest receptor concentration shown for this mutant, read off a plot
[3] = target: FITC-labeled AC413(6–25) with Y25P mutation; assay: as above; conditions: anisotropy at the highest receptor concentration shown, log [RAMP1 ECD-CTR ECD fusion] M = -6; parent: est. 0.19; read off a plot
[4] = target: amylin receptor 1 extracellular domain, wild type (hRAMP1.24–111-(GSA)3-hCTR.34–141-H6) (human) (UniProt O60894); assay: competition binding assay; non-labeled sCT(22–32) as competitor on amylin receptor 1 ECDs (Figure S3); probe and conditions not shown
[5] = log [RAMP1 ECD-CTR ECD fusion] M = -5.5, parent: est. 0.19

Sequence of salmon calcitonin fragment sCT(22-32) 22-32 (P01263 whole entry, looked up, the tested form may be a part): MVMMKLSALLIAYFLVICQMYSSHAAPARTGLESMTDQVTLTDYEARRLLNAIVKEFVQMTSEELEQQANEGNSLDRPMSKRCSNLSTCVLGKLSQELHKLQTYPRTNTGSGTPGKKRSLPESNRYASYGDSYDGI

Substance | response [2, 5] | response [3] | other results
salmon calcitonin fragment sCT(22-32) 22-32 (from UniProt P01263) | – | – | Ki [1]: 2.5 µM
amylin receptor 1 extracellular domain, wild type (hRAMP1.24–111-(GSA)3-hCTR.34–141-H6) (from UniProt O60894) N135D | 0.052 | 0.056 | –
amylin receptor 1 extracellular domain, wild type (hRAMP1.24–111-(GSA)3-hCTR.34–141-H6) (from UniProt O60894) D101A | – | 0.041 | response ([2]; log [RAMP1 ECD-CTR ECD fusion] M = -6, parent: est. 0.18): 0.035
amylin receptor 1 extracellular domain, wild type (hRAMP1.24–111-(GSA)3-hCTR.34–141-H6) (from UniProt O60894) D101E | 0.035 | 0.046 | –
non-labeled salmon calcitonin (sCT) (22–32) fragment (peptide) | – | – | Ki [4]: 0.891 µM
amylin receptor 1 extracellular domain, wild type (hRAMP1.24–111-(GSA)3-hCTR.34–141-H6) (from UniProt O60894) N135A | 0.081 | 0.1 | –
